# Results: US6495144
# Columns and labels:
# [1] = system: CBF1 + EBNA2 GP320SR (CR6) GP320SR (Homo sapiens / Epstein-Barr virus); assay: EMSA; conditions: supershifted complex relative to wild-type
# [2] = system: CBF1 + EBNA2 II307SR (CR5) II307SR (Homo sapiens / Epstein-Barr virus); assay: EMSA; conditions: supershifted complex relative to wild-type
# [3] = system: CBF1 + EBNA2 LGL389SRT (CR7) LGL389SRT (Homo sapiens / Epstein-Barr virus); assay: EMSA; conditions: supershifted complex relative to wild-type
# [4] = system: CBF1 + EBNA2 PI326SR (CR6) PI326SR (Homo sapiens / Epstein-Barr virus); assay: EMSA; conditions: supershifted complex relative to wild-type
# [5] = system: CBF1 + EBNA2 SR360VD (PKC) SR360VD (Homo sapiens / Epstein-Barr virus); assay: EMSA; conditions: supershifted complex relative to wild-type
# [6] = system: CBF1 + EBNA2 WW323SR (CR6) WW323SR (Homo sapiens / Epstein-Barr virus); assay: EMSA; conditions: no supershifted complex
# [7] = system: CBF1 + EBNA2 del252-309,398-425 del252-309,del398-425 (Homo sapiens / Epstein-Barr virus); assay: EMSA; conditions: no supershifted complex
# [8] = system: CBF1 + EBNA2 del252-366 del252-366 (Homo sapiens / Epstein-Barr virus); assay: EMSA; conditions: no supershifted complex
# [9] = system: CBF1 + EBNA2 del343-425 del343-425 (Homo sapiens / Epstein-Barr virus); assay: EMSA; conditions: no stable supershifted complex; partially competed CBF1 complex
# [10] = system: CBF1 + EBNA2 del344-357 del344-357 (Homo sapiens / Epstein-Barr virus); assay: EMSA; conditions: supershifted complex relative to wild-type
# [11] = system: CBF1 + EBNA2 del376-425 del376-425 (Homo sapiens / Epstein-Barr virus); assay: EMSA; conditions: supershifted complex relative to wild-type
# [12] = system: CBF1 + type A EBNA2 252-425 complex (Homo sapiens / Epstein-Barr virus); assay: EMSA; conditions: supershifted EBNA2/CBF1 complex, reference; EBNA2 tethered through CBF1
# [13] = molecular target: CBF1/RBPJk (UniProt Q06330); assay: EMSA supershift with heparin-agarose purified CBF1 and Cp CBF1 site probe; phosphoimager, relative to wild-type EBNA2(252-425)
# [14] = molecular target: GAL4-CBF1 (KLV249AAA) (UniProt P04386); assay: cell-based or functional assay
# [15] = molecular target: GAL4-CBF1 (wild-type) (UniProt P04386); assay: cell-based or functional assay
# [16] = molecular target: GAL4CBF1 (EEF233AAA) (UniProt P04386); assay: cell-based or functional assay
# [17] = molecular target: CBF1/RBPJk (UniProt Q06330); assay: cell-based or functional assay
# Chain of CBF1/RBPJk (Q06330 whole entry, the tested form may be a part): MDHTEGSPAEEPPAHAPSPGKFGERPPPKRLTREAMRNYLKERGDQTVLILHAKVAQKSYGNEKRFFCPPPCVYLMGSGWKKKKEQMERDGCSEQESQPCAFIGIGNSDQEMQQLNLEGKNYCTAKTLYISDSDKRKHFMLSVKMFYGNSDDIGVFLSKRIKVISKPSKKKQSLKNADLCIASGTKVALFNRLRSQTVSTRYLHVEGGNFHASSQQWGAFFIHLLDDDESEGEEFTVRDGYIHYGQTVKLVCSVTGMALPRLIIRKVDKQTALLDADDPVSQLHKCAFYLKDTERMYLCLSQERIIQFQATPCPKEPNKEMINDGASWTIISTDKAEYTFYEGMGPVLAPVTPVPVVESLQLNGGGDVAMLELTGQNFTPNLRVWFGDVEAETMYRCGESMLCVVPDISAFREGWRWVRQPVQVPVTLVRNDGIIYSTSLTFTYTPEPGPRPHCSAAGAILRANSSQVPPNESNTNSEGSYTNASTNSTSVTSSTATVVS
substance,measurement,setting,value
Cp CBF1 binding site 30-bp probe,binding signal,[1],90%
same,binding signal,[2],20%
same,binding signal,[3],50%
same,binding signal,[4],5%
same,binding signal,[5],60%
same,binding signal,[6],< 1%
same,binding signal,[7],< 1%
same,binding signal,[8],< 1%
same,binding signal,[9],< 1%
same,binding signal,[10],100%
same,binding signal,[11],10%
same,binding signal,[12],100%
EBNA2 252-425 II307SR (CR5) (from UniProt P12978 252-425),% Complex formation,[13],20%
"EBNA2 252-425 del252-309,398-425 (from UniProt P12978 310-397)",% Complex formation,[13],< 1%
EBNA2 252-425 del252-366 (from UniProt P12978 367-425),% Complex formation,[13],< 1%
EBNA2 252-425 del343-425 (from UniProt P12978 252-342),% Complex formation,[13],< 1%
EBNA2 252-425 del344-357 (from UniProt P12978 252-343; P12978 358-425),% Complex formation,[13],100%
EBNA2 252-425 del376-425 (from UniProt P12978 252-375),% Complex formation,[13],10%
EBNA2 (effector of Table 2) (from UniProt P12978 1-487),Relative CAT Activity (relative to CAT reporter alone),[14],21
Notch1IC (from UniProt Q01705 1751-2531) (receptor),Relative CAT Activity (relative to CAT reporter alone),[14],1.3
same,Relative CAT Activity (relative to CAT reporter alone),[15],4.9
same,Relative CAT Activity (relative to CAT reporter alone),[16],4.2
Notch2IC (from UniProt Q9QW30 1789-2471) (receptor),Relative CAT Activity (relative to CAT reporter alone),[14],1.3
same,Relative CAT Activity (relative to CAT reporter alone),[15],5.7
same,Relative CAT Activity (relative to CAT reporter alone),[16],4.5
full-length EBNA2 GP320SR (CR6) (from UniProt P12978 1-487),% Transactivation,[17],120%
full-length EBNA2 II307SR (CR5) (from UniProt P12978 1-487),% Transactivation,[17],20%
full-length EBNA2 LGL389SRT (CR7) (from UniProt P12978 1-487),% Transactivation,[17],100%
full-length EBNA2 PI326SR (CR6) (from UniProt P12978 1-487),% Transactivation,[17],2%
same,"transactivation at the highest levels of effector DNA (Cp-CAT, DG75 cells)",[17],20%
full-length EBNA2 SR360VD (PKC) (from UniProt P12978 1-487),% Transactivation,[17],110%
full-length EBNA2 WW323SR (CR6) (from UniProt P12978 1-487),% Transactivation,[17],0%
full-length EBNA2 del344-357 (from UniProt P12978 1-487),% Transactivation,[17],150%
"wild-type EBNA2 (full-length, type A) (from UniProt P12978 1-487)",% Transactivation,[17],100%
